Several values for one entry are separate records, joined by “and”; a condition that tells them apart may be missing. Identical values can stand only once. Like-named read-outs stand apart in the source and are kept apart here.
B1: I1-GS10-E1, His-tagged, non-pegylated (designed binder)
chain: MGVSDVPRDLEVVAATPTSLLISWSARLKVARYYRITYGETGGNSPVQEFTVPKNVYTATISGLKPGVDYTITVYAVTRFRDYQPISINYRTEIDKGSGSGSGSGSGSGSGSGSGSVSDVPRDLEVVAATPTSLLISWVAGAEDYQYYRITYGETGGNSPVQEFTVPHDLVTATISGLKPGVDYTITVYAVTDMMHVEYTEHPISINYRTEIDKPSQHHHHHH
B2: E4-GS10-I1 pegylated, His-tagged (designed binder)
chain: MGVSDVPRDLEVVAATPTSLLISWHERDGSRQYYRITYGETGGNSPVQEFTVPGGVRTATISGLKPGVDYTITVYAVTDYFNPTTHEYIYQTTPISINYRTEIDKGSGSGSGSGSGSGSGSGSGSVSDVPRDLEVVAATPTSLLISWSARLKVARYYRITYGETGGNSPVQEFTVPKNVYTATISGLKPGVDYTITVYAVTRFRDYQPISINYRTEIDKPCQHHHHHH
modifications: 40 kDa branched PEG on the Cys of the C-terminal Cys tail
notes: also called E4-GS10-I1 (with Peg)
B3: E3-GS10-I1, non-pegylated (designed binder)
chain: VSDVPRDLEVVAATPTSLLISWLPGKLRYQYYRITYGETGGNSPVQEFTVPHDLRTATISGLKPGVDYTITVYAVTNMMHVEYSEYPISINYRTEIDKGSGSGSGSGSGSGSGSGSGSVSDVPRDLEVVAATPTSLLISWSARLKVARYYRITYGETGGNSPVQEFTVPKNVYTATISGLKPGVDYTITVYAVTRFRDYQPISINYRTEIDKPSQ
B4: E1-GS10-I1 pegylated, His-tagged (designed binder)
chain: MGVSDVPRDLEVVAATPTSLLISWVAGAEDYQYYRITYGETGGNSPVQEFTVPHDLVTATISGLKPGVDYTITVYAVTDMMHVEYTEHPISINYRTEIDKGSGSGSGSGSGSGSGSGSGSVSDVPRDLEVVAATPTSLLISWSARLKVARYYRITYGETGGNSPVQEFTVPKNVYTATISGLKPGVDYTITVYAVTRFRDYQPISINYRTEIDKPCQHHHHHH
modifications: 40 kDa branched PEG on the Cys of the C-terminal Cys tail
notes: also called E1-GS10-I1 (with PEG)
B5: E1-GS10-I1, His-tagged, non-pegylated (designed binder)
chain: MGVSDVPRDLEVVAATPTSLLISWVAGAEDYQYYRITYGETGGNSPVQEFTVPHDLVTATISGLKPGVDYTITVYAVTDMMHVEYTEHPISINYRTEIDKGSGSGSGSGSGSGSGSGSGSVSDVPRDLEVVAATPTSLLISWSARLKVARYYRITYGETGGNSPVQEFTVPKNVYTATISGLKPGVDYTITVYAVTRFRDYQPISINYRTEIDKPSQHHHHHH
notes: bispecific EGFR/IGF-IR tandem of two 10Fn3 domains
B6: E3-GS10-I1 pegylated, His-tagged (designed binder)
chain: MGVSDVPRDLEVVAATPTSLLISWLPGKLRYQYYRITYGETGGNSPVQEFTVPHDLRTATISGLKPGVDYTITVYAVTNMMHVEYSEYPISINYRTEIDKGSGSGSGSGSGSGSGSGSGSVSDVPRDLEVVAATPTSLLISWSARLKVARYYRITYGETGGNSPVQEFTVPKNVYTATISGLKPGVDYTITVYAVTRFRDYQPISINYRTEIDKPCQHHHHHH
modifications: 40 kDa branched PEG on the Cys of the C-terminal Cys tail
notes: also called E3-GS10-I1-Cys (with his)
B7: I1-GS10-E4 pegylated, His-tagged (designed binder)
chain: MGVSDVPRDLEVVAATPTSLLISWSARLKVARYYRITYGETGGNSPVQEFTVPKNVYTATISGLKPGVDYTITVYAVTRFRDYQPISINYRTEIDKGSGSGSGSGSGSGSGSGSGSVSDVPRDLEVVAATPTSLLISWHERDGSRQYYRITYGETGGNSPVQEFTVPGGVRTATISGLKPGVDYTITVYAVTDYFNPTTHEYIYQTTPISINYRTEIDKPCQHHHHHH
modifications: 40 kDa branched PEG on the Cys of the C-terminal Cys tail

Assays:
[1] = biological target: T1, EGFR on the surface of human tumour cells (A431, H292) (human, UniProt P00533 25-1210); test: cell-based or functional assay
[2] = biological target: T2, IGF-IR on human tumour cells (H292, MCF-7, RH41) (human, UniProt P08069 31-1367); test: cell-based or functional assay
[3] = biological target: T3, Recombinant human EGFR-Fc (aa 1-645 of the extracellular domain of human EGFR fused to human Fc) (human, UniProt P00533 25-645)
T3 construct: range 1-645; bought from R&D Systems; also called EGFR645-Fc; EGFR-Fc (HER-1); not shown: human Fc

[4] = biological target: T4, IGF1R-Fc (extracellular domain of human IGF1R aa 1-932 fused to hinge and constant regions of human IgG1) (human, UniProt P08069 31-932)
T4 construct: range 1-932; made in house by transient transfection, purified on Protein A; also called IGF-IR-Fc; not shown: hinge and constant regions of human IgG1

[5] = biological target: T1, EGFR on the surface of human tumour …
mouse EGFR = mouse EGFR (mouse, UniProt Q01279 25-647, limits assumed); test: SPR Biacore
rat EGFR = rat EGFR (rat, UniProt A0ABK0LZB0 35-1214); test: SPR Biacore
monkey EGFR = monkey EGFR (monkey); test: SPR Biacore
[6] = biological target: T1, EGFR on the surface of human tumour …; test: cell-based or functional assay; remark: listed apart in the source
[7] = biological target: T1, EGFR on the surface of human tumour …; test: cell-based or functional assay; remark: listed apart in the source
[8] = biological target: T2, IGF-IR on human tumour cells (H292, …); test: cell-based or functional assay; remark: listed apart in the source
[9] = biological target: T3, Recombinant human EGFR-Fc (aa 1-645 of …); remark: listed apart in the source
[10] = biological target: T4, IGF1R-Fc (extracellular domain of human …); remark: listed apart in the source
[11] = biological target: T1, EGFR on the surface of human tumour …; remark: listed apart in the source
[12] = biological target: T1, EGFR on the surface of human tumour …; test: cell-based or functional assay; remark: listed apart in the source
[13] = biological target: T2, IGF-IR on human tumour cells (H292, …); test: cell-based or functional assay; remark: listed apart in the source
[14] = biological target: T1, EGFR on the surface of human tumour …; remark: listed apart in the source
[15] = biological target: T3, Recombinant human EGFR-Fc (aa 1-645 of …); remark: listed apart in the source
[16] = biological target: T4, IGF1R-Fc (extracellular domain of human …); remark: listed apart in the source
[17] = biological target: T1, EGFR on the surface of human tumour …; test: cell-based or functional assay; remark: listed apart in the source
[18] = biological target: T2, IGF-IR on human tumour cells (H292, …); test: cell-based or functional assay; remark: listed apart in the source

Binder	Kd [3]	koff [3]	Kd [4] [nM]	koff [4] [s⁻¹]	kon [4] [M⁻¹ s⁻¹]	Kd [10] [nM]	IC50 [11] [nM]	A431 pEGFR IC50 (In-Cell Western) [12] [nM]	A431 pERK IC50 (In-Cell Western) [12] [nM]	H292 pEGFR IC50 (ELISA) [12] [nM]	H292 pIGF-IR IC50 (ELISA) [13] [nM]	IC50 [14] [nM]	Kd [15] [nM]	Kd [16] [nM]	other results
B1	4.8 nM and 10.3 nM	0.000603 s⁻¹ and 0.000425 s⁻¹	0.27	0.000398	1.47e+06	–	–	–	–	–	–	–	–	–	IC50, EGF-stimulated EGFR phosphorylation, A431 cells, In Cell Western [1]: 93 nM; IC50, EGF-stimulated EGFR phosphorylation, H292 cells, ELISA [1]: 42 nM; IC50, EGF-stimulated ERK phosphorylation, A431 cells, In Cell Western [1]: 99 nM; IC50, IGF1-stimulated IGFR phosphorylation, H292 cells, ELISA [2]: 1 nM; IC50 [5]: 7 nM
B2	–	–	–	–	–	0.77	19.5	–	–	–	–	–	–	–	Kd (mouse EGFR): 6.9 nM; Kd (rat EGFR): 5.6 nM; Kd (monkey EGFR): 5.7 nM; H292 colony formation assay IC50 [6]: 5 nM; IC50, EGF-induced EGFR phosphorylation, A431 cells, In Cell Western [7]: 12 nM; IC50, EGF-induced ERK phosphorylation, A431 cells, In Cell Western [7]: 12 nM; IC50, EGF-stimulated EGFR phosphorylation, H292 cells, ELISA [7]: 1.3 nM; IC50, IGF1-stimulated IGFR phosphorylation, H292 cells, ELISA [8]: 0.4 nM; Kd [9]: 4.77 nM
B3	0.66 nM	0.000229 s⁻¹	0.12	0.000209	1.8e+06	–	–	14	12	7	6	25	0.7	0.1	kon [3]: 349000 M⁻¹ s⁻¹
B4	–	–	–	–	–	2.43	238	297	295	123	4	396	57.9	2.4	inhibition of EGF induced EGFR phosphorylation, A431, IC50 [17]: 297 nM; inhibition of EGF induced ERK phosphorylation, A431, IC50 [17]: 295 nM; inhibition of EGFR activity, H292 cells, IC50 [17]: 123 nM
B5	10.2 nM and 7.53 nM	0.000389 s⁻¹ and 0.000474 s⁻¹	0.66	0.000338	513000	–	–	36	51	30	1	51	3.8	0.8	inhibition of EGF-stimulated EGFR phosphorylation (Y1068), H292 cells, ELISA, IC50 [17]: 20 nM; inhibition of IGF1-stimulated IGF1R phosphorylation (Y1131), H292 cells, ELISA, IC50 [18]: 4 nM; inhibition of RH41 cell proliferation, IC50 [18]: 9 nM; kon [3]: 38200 M⁻¹ s⁻¹ and 62900 M⁻¹ s⁻¹; IC50 [5]: 14.6 nM
B6	–	–	–	–	–	–	89	42	40	10	6	80.5	10.4	0.74	inhibition of IGFR activity, H292 cells, IC50 [18]: 6 nM
B7	–	–	–	–	–	0.46	38.1	–	–	–	–	–	–	–	Kd (mouse EGFR): 5.5 nM; Kd (rat EGFR): 3.7 nM; Kd (monkey EGFR): 3.9 nM; H292 colony formation assay IC50 [6]: 6 nM; IC50, EGF-induced EGFR phosphorylation, A431 cells, In Cell Western [7]: 12 nM; IC50, EGF-induced ERK phosphorylation, A431 cells, In Cell Western [7]: 13 nM; IC50, EGF-stimulated EGFR phosphorylation, H292 cells, ELISA [7]: 4 nM; IC50, IGF1-stimulated IGFR phosphorylation, H292 cells, ELISA [8]: 0.2 nM; Kd [9]: 3.63 nM
